In patent US20110039770A1, “INHIBITORS OF PROTEIN KINASE C ISOFORMS AND USES THEREOF” (PHARMAGAP INC., priority 2005, published 2011):
Where a SMILES comes first, the peptide text is derived from it. [ ]: non-standard residue; d: D form.

What was measured:
PKC-α = PKC-α (Homo sapiens, UniProt P17252); test: Competitive binding assay using cell extracts (Western blot); parameters: endogenous PKC-α in (A) untreated human neuroblastoma (IMR-32) cells; endogenous in cells; host or cells: IMR-32 human neuroblastoma cells; key: —: no detectable affinity; Low to very low affinity at 10X or 20X or both PRE concentrations in at least one cell line in the cell extract assay; Low affinity in purified isoform assay.; Moderate affinity at 10X or 20X or both PRE concentrations in at least one cell line in the cell extract assay.; High affinity at 10X or 20X or both PRE concentrations in at least one cell line in the cell extract assay; High affinity in purified isoform assay; settings: Cell extract; PRE 10X or 20X antibody concentration
PKC-ζ = target: T1, PKC-ζ (Homo sapiens, UniProt Q05513); test: ELISA-based competitive binding assay with purified PKC isoform; parameters: key to Affinity for PKC isoform ζ: —: no detectable affinity; Low to very low affinity at 10X or 20X or both PRE concentrations in at least one cell line in the cell extract assay; Low affinity in purified isoform assay.; Moderate affinity at 10X or 20X or both PRE concentrations in at least one cell line in the cell extract assay.; High affinity at 10X or 20X or both PRE concentrations in at least one cell line in the cell extract assay; High affinity in purified isoform assay; settings: for Affinity for PKC isoform ζ: Purified isoform
T1 sequence (Q05513 1-592): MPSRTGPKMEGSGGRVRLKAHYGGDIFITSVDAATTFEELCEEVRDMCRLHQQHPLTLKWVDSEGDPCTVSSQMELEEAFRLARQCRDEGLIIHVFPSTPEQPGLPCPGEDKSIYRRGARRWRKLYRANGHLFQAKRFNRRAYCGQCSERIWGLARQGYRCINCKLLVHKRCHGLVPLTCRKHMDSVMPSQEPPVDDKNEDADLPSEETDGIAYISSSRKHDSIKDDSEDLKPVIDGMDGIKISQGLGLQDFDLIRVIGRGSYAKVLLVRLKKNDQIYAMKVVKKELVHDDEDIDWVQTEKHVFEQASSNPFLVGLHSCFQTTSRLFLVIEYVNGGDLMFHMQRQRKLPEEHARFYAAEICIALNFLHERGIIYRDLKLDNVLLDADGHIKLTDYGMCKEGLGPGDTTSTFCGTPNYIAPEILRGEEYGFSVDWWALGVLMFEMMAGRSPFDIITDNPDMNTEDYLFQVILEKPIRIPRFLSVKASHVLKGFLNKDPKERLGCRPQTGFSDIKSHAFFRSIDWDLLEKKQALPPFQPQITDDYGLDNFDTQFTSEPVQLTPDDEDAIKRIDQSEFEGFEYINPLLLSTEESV
Experimental: Peptides PRE 1, 2, 3, 4, 5, 6, 7, 8, 9, 10, 11, 12 and 13 (see Table 3) were tested for their ability to interfere with binding of PKC isoform-specific antibodies to their target PKC isoforms using a competitive binding assay and purified PKC isoforms.
Procedure: Competitive binding was assessed using a 96 well plate ELISA-based assay as described below.
Greiner 96 well ELISA plates were coated with the appropriate PKC isoform diluted in PBSN (PBS with Calcium/Magnesium+0.05% Sodium azide w/w). 50 μL/well at 250 ng/mL was used. Control wells contained PBSN only. Plates were incubated overnight at 4° C.
The plates were washed 3 times with 200 μL of dH2O per well, then 100 μL of blocking solution was added per well and the plate incubated for 1 h at 37° C. The washing steps with dH2O were repeated and 50 μL of the appropriate PRE solution (PRE stock solution [20 mM in DMSO] diluted in PBSN) was added and the plate incubated for 1 h at room temperature.
After incubation, 5 μL of 1.1:400 anti-PKC (isoform specific antibody) was added per well (to provide a final concentration of 1:4000). For PKC-epsilon, 1.1:800 dilution was used and for PKC-zeta a 1.1:100 dilution was used due to high and low binding affinity, respectively. The plates were then incubated 1 h at room temperature, followed by washing with dH2O as described above.
50 μL of 1:1000 dilution of Alkaline Phosphatase (AP) conjugated antibody (anti-rabbit for all except zeta, which was anti-goat) was then added and the plate incubated for 1 h at room temperature. Washing with dH2O was then repeated. Finally, 100 μL of pNPP solution in pNPP buffer (2 mM MgCl2, 100 mM Sodium bicarbonate in water, pH 9.8) was added to all wells and incubated for 8 minutes for α, βI, βII ε, and ζ, or for 15-20 mins for δ (until sufficient coloration is observed). The reaction was stopped by addition of Stop solution (2N NaOH) and the absorbance at 405 nm was read on a Galaxy Plate reader.
Controls were PKC without PRE; blank controls, and controls containing the final concentrations of DMSO used for solubilizing the PREs. The non-specific binding capacity related to DMSO was also measured.
The antibodies used were as follows: anti-PKC α (Cat. No. SC-208); anti-PKC βI (Cat. No. SC-209); anti-PKC βII (Cat. No. SC-210); anti-PKC δ (Cat. No. SC-213); anti-PKC ε (Cat. No. SC-214); anti-PKC ζ (Cat. No. SC-216-G) (all from Santa Cruz Biotechnology, Inc.). The AP-conjugated antibodies were obtained from Jackson Immuno Research Laboratories (West Grove, Pa.).
Calculations: The OD values measured at 405 nm represent the free PKC coated per well.
OD405 PKC alone−Blank OD405 of each sample=OD405 coated isoform
(OD405 of sample X/OD405 coated isoform)×100=% n that represents the percentage of X binding compared to control.
100-% n measures the relative binding capacity of X towards the tested isoform.
The apparent binding capacity of the DMSO samples was then subtracted from X binding capacity.
All measurements were made in triplicate and the values in the table represent the averaged calculated binding capacity values after subtraction of the DMSO apparent binding capacity (averaged from 12 values, respectively 10.80, 11.20 and 16.40 corresponding to the concentrations of DMSO used to dilute the […] at 200, 100 and 50 μM respectively). The results allow for quantitative comparison of the binding capacity of each PRE towards an individual isoform within each table, but not among isoforms due to differences in sensitivity of the specific antibodies toward the secondary antibody. This applies particularly to PKC-delta. As noted above, the colour development duration was increased 2-3 times and, as a result, the OD405 measurements may be overestimated for this isoform.

[1] = PRE 50 μM, purified PKC-ζ, read-out: calculated binding capacity (100-% n, DMSO apparent binding subtracted)
[2] = PRE 100 μM, purified PKC-ζ, read-out: calculated binding capacity (100-% n, DMSO apparent binding subtracted)

| Compound | Affinity for PKC isoform α (PKC-α) | Affinity for PKC isoform ζ (PKC-ζ) | inhibition at 50 µM (PKC-ζ; [1]) [%] | inhibition at 100 µM (PKC-ζ; [2]) [%] | inhibition at 200 µM (PKC-ζ; PRE 200 μM, purified PKC-ζ, read-out: calculated binding capacity (100-% n, DMSO apparent binding subtracted)) [%] | calculated binding capacity (100-% n, DMSO apparent binding subtracted) (PKC-ζ; PRE 50 μM, purified PKC-ζ) [%] | calculated binding capacity (100-% n, DMSO apparent binding subtracted) (PKC-ζ; PRE 200 μM, purified PKC-ζ) [%] | calculated binding capacity (100-% n, DMSO apparent binding subtracted) (PKC-ζ; PRE 100 μM, purified PKC-ζ) [%] |
| --- | --- | --- | --- | --- | --- | --- | --- | --- |
| CC[C@H](C)[C@H](NC(=O)[C@H](CO)NC(=O)[C@@H](NC(=O)CNC(=O)[C@@H](NC(=O)[C@H](CC(C)C)NC(=O)[C@H](CC(N)=O)NC(=O)[C@H](CCC(N)=O)NC(=O)[C@H](C)NC(=O)[C@H](CC(=O)O)NC(=O)CNC(=O)CNC(=O)[C@H](CCCCN)NC(=O)[C@@H](NC(=O)[C@H](CCC(=O)O)NC(=O)[C@H](CCC(N)=O)NC(=O)[C@@H](NC(=O)CNC(=O)[C@H](CCCCN)NC(=O)[C@H](C)NC(C)=O)[C@@H](C)CC)C(C)C)[C@@H](C)CC)[C@@H](C)CC)C(N)=O [PRE 3] (Ac-AKGIQEVKGGDAQNLIGISI-NH2) | H | H |  |  |  |  |  |  |
| CC[C@H](C)[C@H](NC(=O)[C@H](CO)NC(=O)[C@@H](NC(=O)CNC(=O)[C@@H](NC(=O)[C@H](CC(C)C)NC(=O)[C@H](CC(N)=O)NC(=O)[C@H](CCC(N)=O)NC(=O)[C@H](C)NC(=O)[C@H](CC(=O)O)NC(=O)[C@H](CCCCN)NC(C)=O)[C@@H](C)CC)[C@@H](C)CC)C(N)=O [PRE 4, Ac-KDAQNLIGISI-NH2] (Ac-KDAQNLIGISI-NH2) | H | — | 0 | 0 |  |  |  |  |
| CC[C@H](C)[C@H](NC(=O)[C@H](CO)NC(=O)[C@@H](NC(=O)CNC(=O)[C@@H](NC(=O)[C@H](CC(C)C)NC(=O)[C@H](CC(N)=O)NC(=O)[C@H](CCC(N)=O)NC(=O)[C@H](C)NC(=O)[C@H](CC(=O)O)NC(=O)[C@H](CCCCN)NC(=O)CNC(=O)CNC(=O)[C@H](CCCCN)NC(=O)[C@@H](NC(=O)[C@H](CCC(=O)O)NC(=O)[C@H](CCC(N)=O)NC(=O)[C@@H](NC(=O)CNC(=O)[C@H](CCCCN)NC(=O)[C@H](C)NC(C)=O)[C@@H](C)CC)C(C)C)[C@@H](C)CC)[C@@H](C)CC)C(N)=O [PRE 5] (Ac-AKGIQEVKGGKDAQNLIGISI-NH2) | M | — | 0 | 0 | 0 |  |  |  |
| Ac-ISIGILNQADK-NH2 [PRE 10] | H/L | — |  |  |  |  |  |  |
| Ac-ISIGILQNADK-NH2 (not fully specified; printed as Ac-ISIGILQNADK-NH2) [PRE 7] | L | — |  |  |  | 1.83 | 1.54 |  |
| Ac-KDANQLIGISI-NH2 [PRE 6] | H/L | — |  |  |  |  |  |  |
| ILEDKGGDAQNLIGISI [PRE 8] | M/L | — |  |  |  |  |  |  |
| RRKKGGKDFVVKR [PRE 1] | H | — |  |  |  | 4.11 |  |  |

The remaining lines, values ahead:

| Affinity for PKC isoform α (PKC-α) | Affinity for PKC isoform ζ (PKC-ζ) | inhibition at 50 µM (PKC-ζ; [1]) [%] | inhibition at 100 µM (PKC-ζ; [2]) [%] | inhibition at 200 µM (PKC-ζ; PRE 200 μM, purified PKC-ζ, read-out: calculated binding capacity (100-% n, DMSO apparent binding subtracted)) [%] | calculated binding capacity (100-% n, DMSO apparent binding subtracted) (PKC-ζ; PRE 50 μM, purified PKC-ζ) [%] | calculated binding capacity (100-% n, DMSO apparent binding subtracted) (PKC-ζ; PRE 200 μM, purified PKC-ζ) [%] | calculated binding capacity (100-% n, DMSO apparent binding subtracted) (PKC-ζ; PRE 100 μM, purified PKC-ζ) [%] | Compound |
| --- | --- | --- | --- | --- | --- | --- | --- | --- |
| — | — |  |  |  | 4.20 | 0.33 | 8.77 | Ac-KDAQNLI-NH2 [PRE 12] |
| M/H | — |  |  |  |  | 4.29 |  | Ac-RDAQNLI-NH2 [PRE 13] |
| H/L | — |  |  |  |  |  |  | Ac-RDAQNLIGISI-NH2 [PRE 11] |
| M/L | — |  |  |  |  |  |  | Ac-isigilqnadk-NH2 (Ac-[dI][dS][dI]G[dI][dL][dQ][dN][dA][dD][dK]-NH2; SMILES CC[C@@H](C)[C@@H](NC(C)=O)C(=O)N[C@H](CO)C(=O)N[C@@H](C(=O)NCC(=O)N[C@@H](C(=O)N[C@H](CC(C)C)C(=O)N[C@H](CCC(N)=O)C(=O)N[C@H](CC(N)=O)C(=O)N[C@H](C)C(=O)N[C@H](CC(=O)O)C(=O)N[C@H](CCCCN)C(N)=O)[C@H](C)CC)[C@H](C)CC) [PRE 9] |
